5 molecules from US20220293215A1 can be followed below.

The target in assay [1] is T1, I-A^b (MHCII) of murine bone marrow-derived dendritic cells from C57BL/6J mice (mouse), P14434.
T1 chain 1: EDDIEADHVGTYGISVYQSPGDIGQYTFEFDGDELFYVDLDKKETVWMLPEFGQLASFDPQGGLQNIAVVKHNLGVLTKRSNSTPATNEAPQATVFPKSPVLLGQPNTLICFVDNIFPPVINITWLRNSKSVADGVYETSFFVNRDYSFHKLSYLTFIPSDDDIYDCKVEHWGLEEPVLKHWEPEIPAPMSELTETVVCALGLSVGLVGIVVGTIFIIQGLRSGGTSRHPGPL
T1 chain 2: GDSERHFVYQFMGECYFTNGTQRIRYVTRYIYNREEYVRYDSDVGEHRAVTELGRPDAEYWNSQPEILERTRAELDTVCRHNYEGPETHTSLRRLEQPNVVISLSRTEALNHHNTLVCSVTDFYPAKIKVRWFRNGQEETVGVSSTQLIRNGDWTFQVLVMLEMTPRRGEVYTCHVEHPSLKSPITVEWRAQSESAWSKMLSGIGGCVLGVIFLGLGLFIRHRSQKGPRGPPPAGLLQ
Particulars: scale: log2 fold change, Listeria 6 hr versus 10 min.

Assay [2] addresses T1, I-A^b (MHCII) of murine bone …. Description: MHCII peptidomics: Y3P IP of peptide-MHCII from BMDCs exposed to live Listeria, iTRAQ LC-MS/MS. Particulars: scale: log2 fold change, Listeria 6 hr versus 10 min.

Where two headings read alike, the source gives them in different places.

ESVYLSAQKENPRLFAKIETF (modifications not checked) [Listeria peptide …n… (lmo1574 (dnaE))] showed a logFC in assay [1] of 0.595.
For the molecule ERWNEKYAQAYPNVS (modifications not checked), the logFC in assay [2] stood at 0.207.
Molecule WNEKYAQAYPNVS (modifications not checked) yielded a logFC in assay [2] of 1.38.
The same measure, in the same setting: the value for WNEKYAQAYPNVSAKI (modifications not checked) was 1.2.
In assay [2], VERWNEKYAQAYPNVS (modifications not checked) yielded a logFC of 0.285.
